Substitutions are numbered along the chain they refer to. Each block holds one binder with its values, some of them ahead of it.
Legend:
[1] = molecular target: T1, human ROR1 (hROR1) expressed on cells (human, UniProt Q01973 30-937); test: cell-based or functional assay
[2] = molecular target: T1, human ROR1 (hROR1) expressed on cells; test: flow cytometry, HCT116-hROR1 cells
human ROR1-ECD = molecular target: T2, human ROR1-ECD (human, UniProt Q01973 30-406); test: SPR (Biacore), antibody captured by anti-Fc, human ROR1-ECD analyte
T2 construct: Bought protein; also called hROR1; ROR1-extracellular domain
Protocol: Anti-Fc polyclonal antibodies were immobilized onto a CMS chip (GE Life Sciences) using amine coupling chemistry (from Amine Coupling Kit, GE Life Sciences). The immobilization steps were carried out at a flow rate of 25 μL/min in 1×HBS-EP+buffer (GE Life Sciences; 10× Stock diluted before use). The sensor surfaces were activated for 7 min with a mixture of NHS (0.05 M) and EDC (0.2 M). The Anti-Fc antibodies were injected over all 4 flow cells at a concentration of 25 ug/ml in 10 mM sodium acetate, pH 4.5, for 7 min. Ethanolamine (1 M, pH 8.5) was injected for 7 min to block any remaining activated groups.
Off-rate and kinetic binding experiments were performed at 25° C. using 1×HBS-EP+buffer. Test and control antibodies were injected over the anti-Fc surface at concentrations of 5-10 μg/mL for 12 seconds at a flow rate of 10 μL/min on flow cells 2, 3 and 4, followed by a buffer wash for 30 seconds at the same flow rate. […] After capturing ligand (antibody) on the anti-Fc surface, the analyte (hROR1, Fz or Kr domains, Acro Biosystems, Delaware) was bound for 180 seconds, followed by a 600 second dissociation phase at a flow rate of 50 μL/min. Between each ligand capture and analyte binding cycle, regeneration was carried out using 2 injections of 10 mM Glycine pH 2.0 for 30 seconds at 30 μL/min, followed by a 30 second buffer wash step.

B1: SRP1987-C05 parent (antibody, IgG1, V domains shown)
VH: EVQLVESGGGLVQPGGSLRLSCAASGFNISDYDIHWVRQAPGKGLEWVGGIDPDDGSTDYADSVKGRFTISADTSKNTAYLQMNSLRAEDTAVYYCARDYGVFDYWGQGTLVTVSS
VL: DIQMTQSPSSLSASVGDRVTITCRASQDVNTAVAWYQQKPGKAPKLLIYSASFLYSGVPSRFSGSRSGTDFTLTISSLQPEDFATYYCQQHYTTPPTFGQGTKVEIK
notes: IgG1 with trastuzumab LC; HIS- and FLAG-tagged; cell-free expressed
Mino Nb-PBD, drug-conjugated 2° antibody Cell Killing IC50 [1]: 0.77 pM
Mino Nb-PBD, drug-conjugated 2° antibody Cell Killing Span [1]: 68%
Bmax (MFI) [2]: 9500 MFI
Kd [2]: 0.04 nM
Kd (human ROR1-ECD): 0.694 nM
koff (human ROR1-ECD): 0.000681 s⁻¹
kon (human ROR1-ECD): 981000 M⁻¹ s⁻¹

B2: SRP2188-A05 (antibody, IgG1, V domains shown)
VH: B1 VH with S30K, D31R, G50W, D52N, S57D, D59Y
VL: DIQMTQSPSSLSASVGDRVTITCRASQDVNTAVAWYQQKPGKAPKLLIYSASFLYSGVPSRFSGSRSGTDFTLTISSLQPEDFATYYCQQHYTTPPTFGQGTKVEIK
notes: as for B1
Mino Nb-PBD, drug-conjugated 2° antibody Cell Killing IC50 [1]: 1 pM
Mino Nb-PBD, drug-conjugated 2° antibody Cell Killing Span [1]: 71%
Bmax (MFI) [2]: 9030 MFI
Kd [2]: 0.04 nM
Kd (human ROR1-ECD): 0.227 nM
koff (human ROR1-ECD): 0.000243 s⁻¹
kon (human ROR1-ECD): 1.07e+06 M⁻¹ s⁻¹

B6: SRP2188-A09 (antibody, IgG1, V domains shown)
VH: B1 VH with S30I, D31N, G50W, D52N, S57D, D59Y
VL: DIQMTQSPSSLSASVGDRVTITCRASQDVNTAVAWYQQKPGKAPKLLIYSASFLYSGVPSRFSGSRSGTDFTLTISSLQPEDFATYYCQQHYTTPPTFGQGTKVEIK
notes: as for B1
Mino Nb-PBD, drug-conjugated 2° antibody Cell Killing IC50 [1]: 0.88 pM
Mino Nb-PBD, drug-conjugated 2° antibody Cell Killing Span [1]: 71%
Bmax (MFI) [2]: 9380 MFI
Kd [2]: 0.03 nM
Kd (human ROR1-ECD): 0.424 nM
koff (human ROR1-ECD): 0.000401 s⁻¹
kon (human ROR1-ECD): 944000 M⁻¹ s⁻¹

B8: SRP2188-A03 (antibody, IgG1, V domains shown)
VH: B1 VH with S30R, G50W, D52N, S57D, D59Y
VL: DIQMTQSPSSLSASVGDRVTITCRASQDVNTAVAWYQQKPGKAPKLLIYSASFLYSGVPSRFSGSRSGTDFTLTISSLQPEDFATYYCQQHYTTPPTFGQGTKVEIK
notes: as for B1
Mino Nb-PBD, drug-conjugated 2° antibody Cell Killing IC50 [1]: 1 pM
Mino Nb-PBD, drug-conjugated 2° antibody Cell Killing Span [1]: 71%
Bmax (MFI) [2]: 9700 MFI
Kd [2]: 0.03 nM
Kd (human ROR1-ECD): 0.508 nM
koff (human ROR1-ECD): 0.000389 s⁻¹
kon (human ROR1-ECD): 766000 M⁻¹ s⁻¹

B12: SRP2188-A07 (antibody, IgG1, V domains shown)
VH: B1 VH with S30H, D31H, G50W, D52N, S57D, D59Y
VL: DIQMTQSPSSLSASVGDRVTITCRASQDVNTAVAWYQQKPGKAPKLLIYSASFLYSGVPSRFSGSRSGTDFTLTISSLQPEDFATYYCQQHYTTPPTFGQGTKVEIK
notes: as for B1
Mino Nb-PBD, drug-conjugated 2° antibody Cell Killing IC50 [1]: 0.48 pM
Mino Nb-PBD, drug-conjugated 2° antibody Cell Killing Span [1]: 75%
Bmax (MFI) [2]: 9330 MFI
Kd [2]: 0.07 nM
Kd (human ROR1-ECD): 0.609 nM
koff (human ROR1-ECD): 0.000406 s⁻¹
kon (human ROR1-ECD): 666000 M⁻¹ s⁻¹

B14: SRP2188-B01 (antibody, IgG1, V domains shown)
VH: B1 VH with S30N, D31S, Y32H, G50W, D52N, S57D, D59Y, F103L
VL: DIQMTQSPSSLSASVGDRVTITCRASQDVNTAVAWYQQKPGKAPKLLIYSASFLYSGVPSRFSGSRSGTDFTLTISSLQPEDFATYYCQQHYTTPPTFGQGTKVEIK
notes: as for B1
Mino Nb-PBD, drug-conjugated 2° antibody Cell Killing IC50 [1]: 0.69 pM
Mino Nb-PBD, drug-conjugated 2° antibody Cell Killing Span [1]: 75%
Bmax (MFI) [2]: 9470 MFI
Kd [2]: 0.04 nM

Now from value to binder, other results behind:

Bmax (MFI) [2]: 8510 MFI
Kd [2]: 0.03 nM
Kd (human ROR1-ECD): 0.757 nM
koff (human ROR1-ECD): 0.000671 s⁻¹
kon (human ROR1-ECD): 887000 M⁻¹ s⁻¹
B3: SRP2188-B05 (antibody, IgG1, V domains shown)
VH: B1 VH with S30P, G50V, S57W, D59H
VL: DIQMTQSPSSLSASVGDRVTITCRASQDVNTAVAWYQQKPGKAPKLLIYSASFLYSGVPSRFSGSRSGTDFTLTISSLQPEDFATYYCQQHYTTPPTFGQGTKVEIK
notes: as for B1
Mino Nb-PBD, drug-conjugated 2° antibody Cell Killing IC50 [1]: 1.1 pM
Mino Nb-PBD, drug-conjugated 2° antibody Cell Killing Span [1]: 70%

Bmax (MFI) [2]: 9070 MFI
Kd [2]: 0.05 nM
B4: SRP2188-D10 (antibody, IgG1, V domains shown)
VH: B1 VH with G50R, D54R, S57A
VL: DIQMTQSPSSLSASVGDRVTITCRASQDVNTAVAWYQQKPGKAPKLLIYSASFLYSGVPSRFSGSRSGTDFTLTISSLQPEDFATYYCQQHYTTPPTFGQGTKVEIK
notes: as for B1
Mino Nb-PBD, drug-conjugated 2° antibody Cell Killing IC50 [1]: 1 pM
Mino Nb-PBD, drug-conjugated 2° antibody Cell Killing Span [1]: 65%

Bmax (MFI) [2]: 9660 MFI
Kd [2]: 0.05 nM
B5: SRP2188-B04 (antibody, IgG1, V domains shown)
VH: B1 VH with S30T, D31W, G50W, D52N, S57D, D59Y
VL: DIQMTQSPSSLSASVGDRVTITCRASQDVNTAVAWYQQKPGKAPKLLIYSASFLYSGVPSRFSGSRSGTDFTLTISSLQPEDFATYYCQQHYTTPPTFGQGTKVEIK
notes: as for B1
Mino Nb-PBD, drug-conjugated 2° antibody Cell Killing IC50 [1]: 1.2 pM
Mino Nb-PBD, drug-conjugated 2° antibody Cell Killing Span [1]: 73%

Bmax (MFI) [2]: 9750 MFI
Kd [2]: 0.05 nM
B7: SRP2188-G01 (antibody, IgG1, V domains shown)
VH: B1 VH with D54N, S57A
VL: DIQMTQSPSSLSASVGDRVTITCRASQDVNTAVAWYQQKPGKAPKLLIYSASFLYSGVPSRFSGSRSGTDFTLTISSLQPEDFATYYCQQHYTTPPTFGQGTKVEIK
notes: as for B1
Mino Nb-PBD, drug-conjugated 2° antibody Cell Killing IC50 [1]: 1.5 pM
Mino Nb-PBD, drug-conjugated 2° antibody Cell Killing Span [1]: 61%

Bmax (MFI) [2]: 10000 MFI
Kd [2]: 0.04 nM
B9: SRP2188-D02 (antibody, IgG1, V domains shown)
VH: B1 VH with D54E, S57A
VL: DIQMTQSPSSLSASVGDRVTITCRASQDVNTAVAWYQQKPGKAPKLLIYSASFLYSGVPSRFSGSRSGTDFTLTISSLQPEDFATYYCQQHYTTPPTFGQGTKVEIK
notes: as for B1
Mino Nb-PBD, drug-conjugated 2° antibody Cell Killing IC50 [1]: 1.4 pM
Mino Nb-PBD, drug-conjugated 2° antibody Cell Killing Span [1]: 72%

Bmax (MFI) [2]: 8940 MFI
Kd [2]: 0.04 nM
B10: SRP2188-D01 (antibody, IgG1, V domains shown)
VH: B1 VH with S30K, D31S, G50W, D52N, D54Y, S57D, D59Y
VL: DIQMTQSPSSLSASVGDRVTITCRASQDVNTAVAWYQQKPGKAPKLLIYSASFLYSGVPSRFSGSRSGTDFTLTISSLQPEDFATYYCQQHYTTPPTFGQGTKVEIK
notes: as for B1
Mino Nb-PBD, drug-conjugated 2° antibody Cell Killing IC50 [1]: 1.1 pM
Mino Nb-PBD, drug-conjugated 2° antibody Cell Killing Span [1]: 72%

Bmax (MFI) [2]: 9080 MFI
Kd [2]: 0.03 nM
Kd (human ROR1-ECD): 0.504 nM
koff (human ROR1-ECD): 0.00042 s⁻¹
kon (human ROR1-ECD): 833000 M⁻¹ s⁻¹
B11: SRP2188-C09 (antibody, IgG1, V domains shown)
VH: B1 VH with S30N, D31S, G50W, D52N, D54H, S57D, D59Y, K65T
VL: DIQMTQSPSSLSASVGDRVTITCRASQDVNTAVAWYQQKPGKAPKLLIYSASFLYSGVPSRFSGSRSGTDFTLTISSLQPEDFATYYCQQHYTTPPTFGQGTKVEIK
notes: as for B1
Mino Nb-PBD, drug-conjugated 2° antibody Cell Killing IC50 [1]: 0.91 pM
Mino Nb-PBD, drug-conjugated 2° antibody Cell Killing Span [1]: 71%

Bmax (MFI) [2]: 9600 MFI
Kd [2]: 0.03 nM
B13: SRP2188-C03 (antibody, IgG1, V domains shown)
VH: B1 VH with S30N, D31S, G50W, D52N, S57D, D59Y
VL: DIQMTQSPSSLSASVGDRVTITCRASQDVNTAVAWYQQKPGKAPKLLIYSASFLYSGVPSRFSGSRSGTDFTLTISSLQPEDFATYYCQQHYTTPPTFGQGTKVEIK
notes: as for B1
Mino Nb-PBD, drug-conjugated 2° antibody Cell Killing IC50 [1]: 1.1 pM
Mino Nb-PBD, drug-conjugated 2° antibody Cell Killing Span [1]: 71%

Reference: patent publication US20240058465A1 (SUTRO BIOPHARMA, published 2024)
